Assay results published in US20220298218A1 (ANTAG THERAPEUTICS, published 2022).
Where no end group is shown, it is not given here. The star is where a group is joined. C18 diacid = O=C(O)CCCCCCCCCCCCCCCCC(=O)*; C16 diacid = O=C(O)CCCCCCCCCCCCCCC(=O)*

T1: human GIP receptor (human, UniProt P48546 22-466)
T1 sequence (looked up): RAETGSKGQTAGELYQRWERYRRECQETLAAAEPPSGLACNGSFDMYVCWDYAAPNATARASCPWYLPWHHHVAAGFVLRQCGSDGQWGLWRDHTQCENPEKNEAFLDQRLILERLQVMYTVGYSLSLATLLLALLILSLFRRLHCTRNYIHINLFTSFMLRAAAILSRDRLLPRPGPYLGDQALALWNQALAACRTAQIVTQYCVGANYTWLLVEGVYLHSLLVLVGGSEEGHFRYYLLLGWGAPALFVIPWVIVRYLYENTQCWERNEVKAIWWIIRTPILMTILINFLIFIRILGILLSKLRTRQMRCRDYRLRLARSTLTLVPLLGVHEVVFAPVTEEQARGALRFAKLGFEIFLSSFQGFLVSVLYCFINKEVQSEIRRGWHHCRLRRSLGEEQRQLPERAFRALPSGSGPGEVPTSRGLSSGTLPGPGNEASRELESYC


target: T1, human GIP receptor; assay: cell-based or functional assay

Binder | cAMP agonism % Emax [%] | cAMP antagonism [nM] | cAMP antagonism % inhib [%] | cAMP antagonism pIC50
EGTFISDYSIASDKIK(C16 diacid)QQDFVNWLLAQKPSSGAPPPS-OH (N-terminus assumed; SMILES CC[C@H](C)[C@H](NC(=O)[C@H](CO)NC(=O)[C@H](Cc1ccc(O)cc1)NC(=O)[C@H](CC(=O)O)NC(=O)[C@H](CO)NC(=O)[C@@H](NC(=O)[C@H](Cc1ccccc1)NC(=O)[C@@H](NC(=O)CNC(=O)[C@@H](N)CCC(=O)O)[C@@H](C)O)[C@@H](C)CC)C(=O)N[C@@H](C)C(=O)N[C@@H](CO)C(=O)N[C@@H](CC(=O)O)C(=O)N[C@@H](CCCCN)C(=O)N[C@H](C(=O)N[C@@H](CCCCNC(=O)CCCCCCCCCCCCCCC(=O)O)C(=O)N[C@@H](CCC(N)=O)C(=O)N[C@@H](CCC(N)=O)C(=O)N[C@@H](CC(=O)O)C(=O)N[C@@H](Cc1ccccc1)C(=O)N[C@H](C(=O)N[C@@H](CC(N)=O)C(=O)N[C@@H](Cc1c[nH]c2ccccc12)C(=O)N[C@@H](CC(C)C)C(=O)N[C@@H](CC(C)C)C(=O)N[C@@H](C)C(=O)N[C@@H](CCC(N)=O)C(=O)N[C@@H](CCCCN)C(=O)N1CCC[C@H]1C(=O)N[C@@H](CO)C(=O)N[C@@H](CO)C(=O)NCC(=O)N[C@@H](C)C(=O)N1CCC[C@H]1C(=O)N1CCC[C@H]1C(=O)N1CCC[C@H]1C(=O)N[C@@H](CO)C(=O)O)C(C)C)[C@@H](C)CC) [AT622] | 14 | 31.6 | 77 | 7.5
EGTFISDYSIAMDKIK(C16 diacid)QQDFVNWLEAQKPSSGAPPPS-OH (N-terminus assumed; SMILES CC[C@H](C)[C@H](NC(=O)[C@H](CO)NC(=O)[C@H](Cc1ccc(O)cc1)NC(=O)[C@H](CC(=O)O)NC(=O)[C@H](CO)NC(=O)[C@@H](NC(=O)[C@H](Cc1ccccc1)NC(=O)[C@@H](NC(=O)CNC(=O)[C@@H](N)CCC(=O)O)[C@@H](C)O)[C@@H](C)CC)C(=O)N[C@@H](C)C(=O)N[C@@H](CCSC)C(=O)N[C@@H](CC(=O)O)C(=O)N[C@@H](CCCCN)C(=O)N[C@H](C(=O)N[C@@H](CCCCNC(=O)CCCCCCCCCCCCCCC(=O)O)C(=O)N[C@@H](CCC(N)=O)C(=O)N[C@@H](CCC(N)=O)C(=O)N[C@@H](CC(=O)O)C(=O)N[C@@H](Cc1ccccc1)C(=O)N[C@H](C(=O)N[C@@H](CC(N)=O)C(=O)N[C@@H](Cc1c[nH]c2ccccc12)C(=O)N[C@@H](CC(C)C)C(=O)N[C@@H](CCC(=O)O)C(=O)N[C@@H](C)C(=O)N[C@@H](CCC(N)=O)C(=O)N[C@@H](CCCCN)C(=O)N1CCC[C@H]1C(=O)N[C@@H](CO)C(=O)N[C@@H](CO)C(=O)NCC(=O)N[C@@H](C)C(=O)N1CCC[C@H]1C(=O)N1CCC[C@H]1C(=O)N1CCC[C@H]1C(=O)N[C@@H](CO)C(=O)O)C(C)C)[C@@H](C)CC) [AT624] | 0 | 100 | ~90 | ~7
EGTFISDYSIAMDKIK(C16 diacid)QQDFVNWLLEQKPSSGAPPPS-OH (N-terminus assumed; SMILES CC[C@H](C)[C@H](NC(=O)[C@H](CO)NC(=O)[C@H](Cc1ccc(O)cc1)NC(=O)[C@H](CC(=O)O)NC(=O)[C@H](CO)NC(=O)[C@@H](NC(=O)[C@H](Cc1ccccc1)NC(=O)[C@@H](NC(=O)CNC(=O)[C@@H](N)CCC(=O)O)[C@@H](C)O)[C@@H](C)CC)C(=O)N[C@@H](C)C(=O)N[C@@H](CCSC)C(=O)N[C@@H](CC(=O)O)C(=O)N[C@@H](CCCCN)C(=O)N[C@H](C(=O)N[C@@H](CCCCNC(=O)CCCCCCCCCCCCCCC(=O)O)C(=O)N[C@@H](CCC(N)=O)C(=O)N[C@@H](CCC(N)=O)C(=O)N[C@@H](CC(=O)O)C(=O)N[C@@H](Cc1ccccc1)C(=O)N[C@H](C(=O)N[C@@H](CC(N)=O)C(=O)N[C@@H](Cc1c[nH]c2ccccc12)C(=O)N[C@@H](CC(C)C)C(=O)N[C@@H](CC(C)C)C(=O)N[C@@H](CCC(=O)O)C(=O)N[C@@H](CCC(N)=O)C(=O)N[C@@H](CCCCN)C(=O)N1CCC[C@H]1C(=O)N[C@@H](CO)C(=O)N[C@@H](CO)C(=O)NCC(=O)N[C@@H](C)C(=O)N1CCC[C@H]1C(=O)N1CCC[C@H]1C(=O)N1CCC[C@H]1C(=O)N[C@@H](CO)C(=O)O)C(C)C)[C@@H](C)CC) [AT625] | 0 | 3.98 | 93 | 8.4
EGTFISDYSIAMDKIK(C16 diacid)QQDFVEWLLAQAPSSGAPPPS-OH (N-terminus assumed; SMILES CC[C@H](C)[C@H](NC(=O)[C@H](CO)NC(=O)[C@H](Cc1ccc(O)cc1)NC(=O)[C@H](CC(=O)O)NC(=O)[C@H](CO)NC(=O)[C@@H](NC(=O)[C@H](Cc1ccccc1)NC(=O)[C@@H](NC(=O)CNC(=O)[C@@H](N)CCC(=O)O)[C@@H](C)O)[C@@H](C)CC)C(=O)N[C@@H](C)C(=O)N[C@@H](CCSC)C(=O)N[C@@H](CC(=O)O)C(=O)N[C@@H](CCCCN)C(=O)N[C@H](C(=O)N[C@@H](CCCCNC(=O)CCCCCCCCCCCCCCC(=O)O)C(=O)N[C@@H](CCC(N)=O)C(=O)N[C@@H](CCC(N)=O)C(=O)N[C@@H](CC(=O)O)C(=O)N[C@@H](Cc1ccccc1)C(=O)N[C@H](C(=O)N[C@@H](CCC(=O)O)C(=O)N[C@@H](Cc1c[nH]c2ccccc12)C(=O)N[C@@H](CC(C)C)C(=O)N[C@@H](CC(C)C)C(=O)N[C@@H](C)C(=O)N[C@@H](CCC(N)=O)C(=O)N[C@@H](C)C(=O)N1CCC[C@H]1C(=O)N[C@@H](CO)C(=O)N[C@@H](CO)C(=O)NCC(=O)N[C@@H](C)C(=O)N1CCC[C@H]1C(=O)N1CCC[C@H]1C(=O)N1CCC[C@H]1C(=O)N[C@@H](CO)C(=O)O)C(C)C)[C@@H](C)CC) [AT623] | 0 | 3.16 | 98 | 8.5
EGTFISDYSIAMDKIK(C18)QQDFVNWLLAQKPSSGAPPPS-OH [AT628] | 0 | 58.4 | 94 | 7.2
EGTFISDYSIAMDKIK(C18 diacid)QQDFVNWLLAQKPSSGAPPPS-OH (N-terminus assumed; SMILES CC[C@H](C)[C@H](NC(=O)[C@H](CO)NC(=O)[C@H](Cc1ccc(O)cc1)NC(=O)[C@H](CC(=O)O)NC(=O)[C@H](CO)NC(=O)[C@@H](NC(=O)[C@H](Cc1ccccc1)NC(=O)[C@@H](NC(=O)CNC(=O)[C@@H](N)CCC(=O)O)[C@@H](C)O)[C@@H](C)CC)C(=O)N[C@@H](C)C(=O)N[C@@H](CCSC)C(=O)N[C@@H](CC(=O)O)C(=O)N[C@@H](CCCCN)C(=O)N[C@H](C(=O)N[C@@H](CCCCNC(=O)CCCCCCCCCCCCCCCCC(=O)O)C(=O)N[C@@H](CCC(N)=O)C(=O)N[C@@H](CCC(N)=O)C(=O)N[C@@H](CC(=O)O)C(=O)N[C@@H](Cc1ccccc1)C(=O)N[C@H](C(=O)N[C@@H](CC(N)=O)C(=O)N[C@@H](Cc1c[nH]c2ccccc12)C(=O)N[C@@H](CC(C)C)C(=O)N[C@@H](CC(C)C)C(=O)N[C@@H](C)C(=O)N[C@@H](CCC(N)=O)C(=O)N[C@@H](CCCCN)C(=O)N1CCC[C@H]1C(=O)N[C@@H](CO)C(=O)N[C@@H](CO)C(=O)NCC(=O)N[C@@H](C)C(=O)N1CCC[C@H]1C(=O)N1CCC[C@H]1C(=O)N1CCC[C@H]1C(=O)N[C@@H](CO)C(=O)O)C(C)C)[C@@H](C)CC) [AT627] | 0 | 15.9 | 97 | 7.8
EGTFISDYSIAMDKIK(C16 diacid)QQDFVNWLLEGGPSSGAPPPS-OH (N-terminus assumed; SMILES CC[C@H](C)[C@H](NC(=O)[C@H](CO)NC(=O)[C@H](Cc1ccc(O)cc1)NC(=O)[C@H](CC(=O)O)NC(=O)[C@H](CO)NC(=O)[C@@H](NC(=O)[C@H](Cc1ccccc1)NC(=O)[C@@H](NC(=O)CNC(=O)[C@@H](N)CCC(=O)O)[C@@H](C)O)[C@@H](C)CC)C(=O)N[C@@H](C)C(=O)N[C@@H](CCSC)C(=O)N[C@@H](CC(=O)O)C(=O)N[C@@H](CCCCN)C(=O)N[C@H](C(=O)N[C@@H](CCCCNC(=O)CCCCCCCCCCCCCCC(=O)O)C(=O)N[C@@H](CCC(N)=O)C(=O)N[C@@H](CCC(N)=O)C(=O)N[C@@H](CC(=O)O)C(=O)N[C@@H](Cc1ccccc1)C(=O)N[C@H](C(=O)N[C@@H](CC(N)=O)C(=O)N[C@@H](Cc1c[nH]c2ccccc12)C(=O)N[C@@H](CC(C)C)C(=O)N[C@@H](CC(C)C)C(=O)N[C@@H](CCC(=O)O)C(=O)NCC(=O)NCC(=O)N1CCC[C@H]1C(=O)N[C@@H](CO)C(=O)N[C@@H](CO)C(=O)NCC(=O)N[C@@H](C)C(=O)N1CCC[C@H]1C(=O)N1CCC[C@H]1C(=O)N1CCC[C@H]1C(=O)N[C@@H](CO)C(=O)O)C(C)C)[C@@H](C)CC) [AT626] | 0 | 4.47 | 100 | 8.4
